The values below come from article PMC8555655.

As usually defined, the stoichiometry N is the number of molecules, sites or subunits per partner or assembly.

The test addresses PlyCB R66E mutant (streptococcal bacteriophage (C1)) (UniProt Q7Y3F3). Put plainly: SEC. A general note: SEC sorts molecules by how far they enter the pores of the column.

“PlyCB R66E mutant (from UniProt Q7Y3F3 1-72) (natural protein)”: the stoichiometry N stood at 8.
